Measurements published in the NTF2 design screens of Basanta et al. (2020).

Test: protease stability score; higher = more stable; yeast display proteolysis, trypsin and chymotrypsin;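 also: relative to predicted unfolded state with 0 unfolded-like and 1 meaning tenfold more protease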

| Sequence | protease stability score |
| --- | --- |
| EEEDRIFKEARRLLEYVSETGDETTLKKLVDPHARTHIGDKLLHGREWLHDLLRKAGEDRFHFIIHHVDLQGDKIQMFGQLVIGDKLIHVEIIVNKIDGRWFVESIKID | 0.889 |
| SEDEKITKEATRIFLENLHTGDERTMDDNLDPNVLLIINGVELVGREFIVTWLKELRLKRQDIKSIDMRLINGVAHVFMDIHVEGNYNGRDRRSDEELRYIIRKIDGRWSIESVEIHIR | 1.22 |
| SEEQEITEHFSHLWLEWYLTGDFHKMLKFADPNTKMHIGDKHDHGMERYQEYERRFLEQYKGAKIYIKTVEHYDGRVVIDNIFRFDGREYQLIIEIIVVDGRLKSVHSDMK | 1.25 |
| HEDEEMLHRLAELVEELFRTGDEEMHDHLMDPHARINIDGRDLHGRENMRILWQKLGIERVHVEFHDVKAIGDKASVHTFLEVNGVKVEILIRSEKINGRWVITQINIVFH | 0.386 |
| SHLEEDAEKALRHLIHLFYTGDEKTLHNLADPNTRFRIGDKEYHGMEYILEFWLHIRLEDFDVERMSVQGDKIHIDSRMTLHFNGRSREIEVHILLLKYNGVWRIEEVRIH | 1.24 |
| DLYKHWTDVLLHLFLHVSRTGDEEEVVRLMDPNTLIIINGQEIHGREEIKRTFREMRVDDERLKDMDKIGNKVRVDGEVRITVDGQERTSRAHMVVLKVDGRWTIHSLRIE | 1.77 |
| DEEERELKHFLKEFNRAWRTGDEDEIRHLLDPHVRILFNGVHVIGMEEIEKFWRHLRVRVTRITVHRVDLQGDKLRVDTEQDLVFLIGDFENKHTHHTVIFILKINGRWIIESIVIV | 1.45 |
| SEWDRLMKRIAEDITTALQTGDEDRMHELFDPHARMILLIGDFELHYHGMHEISRVLEEHLRRYDHLEWHIRHVDTQGNKVRVESEMRLIIGDKSETRDYRIILIVINGRNKSVEFRVH | 1.49 |
| DEMEEHSRHLVELFWHWTDTGNEDLIRKNADPNVRLEVNGVHAHGWELYIRMMNQIRIEDRKINDVEVQGDKMRVDGEVQIYYNGKRVDDHLKLHLVVVDGKLKSVHRELE | 1.31 |
| DELERRAEEVFRQWLHYWLTGDFESMERLADPNVRIVINGVELIGMEHVAREIVHRIRHWRVRIQIDRIDNQGDKVHSEGKLIIHQGEKNIHHDITIHFDVVNGKIKHLEIRIQ | 2.24 |
| EEESKVASDIIELHMRFLLTGNWEMFLRLADPHVRIETEDHRDHGRDWYEKLFRHIRSHVEDMRIKHVELQGDKLHAHGSVRLLIVDGDKYIEVEVDFRFIFDKVNGKWILSSIHLK | 2.29 |
| DERTEEVKRITEEFREAERTGDWERLLELIDPDVRIEIIINGRRETYHGREDAKRVLEEWYKQFKNITLKLREMRIQGDKTDLEVEVNVNGRRHDIRVHLHIVNGRIKEIRIEVI | 1.63 |
| SEEEEEMRHHLEIFIESLRTGDEDEIANNADPNWINVVGDKENIGREHILTWYERFYEEIRIHDMKIRHVDVQGEKMRVEGELNKDVNGREIRTEHRWEFDIVNGRLRSLQVRVK | 0.919 |
| TEEEEHWKHLVELWLRAVETGDEHLLHRLLDPHVKIDYNGKELHGRETHIKIERHFRERYKGLRWEIKHHEIQGDKAHVDFLLNVNGREHRVRIEIIIVNGRVHQIHFDIN | 2.23 |
| DHQERHLREFAHEVEEAWHTGDWKDMFRLFDPNTRVDFHFENHDLHLHGRESMVRFIRDFLDKFKNIRLQLTSRDRQGDKVHLTEEFHINGRIMVIHVNFDIVNGKWKRLELDFIDT | 1.25 |
| DDQEEWAKIAMEMILEFLKTGDEELMLELLDPNVRVHLLIDGRHFEDHGRKATRWVIRFIKNVQVKIHNIEYQGDKVHIDVHVDVNGRKTRSREIWTLVDGRIEHVDVQDR | 1.2 |
| SELDHAAEHLYRLFYHLERTGDEETLMDNMDPNARNEQGEFEYHGREFIEWVSEHLGINVIRVKRVDLRVINGRMILDIDYRVHIGDKTIQRHIHVVINKVNGKWIVEKLRIEWR | 0.79 |
| DEEDERLHEFAKLFADLWFTGDEEELHDLIDPHAKLNVDVNGRILDSHGREEFVKVLRKLREHLGVDHVELKDMKVQGDKVIIHGVLIINGRRFDSTLWVYIFNGKIESMEVRMR | 1.69 |
| DEHDEFLEISFKILKKTDDTGDERESRKLADPDARLHVNGVDFHGWEDFKKIMVDLGWRIEEIRIEHIRLVGDKIIIHERVRLRVGDKKRDLHFTIIALKINGRWHLRELHIE | 1.38 |
| DEDEKHARDLMKLWQLAMFTGDEDTLKRLVDPDMRLKYGEFELHGREDLLRFFKHWRLESRLETTDVRFQGDKLVAYGVRRHVSHIDGVEVEETRRVITYILKVDGQWYVKSVEIR | 1.67 |
| REEEKNLHTQMRLFAHALWTGDEDEIHRNMDPHVRSDIDGRELVGREWMIRLIEELRIRHVHIRHFHLQGDKLHLDTISHVIVNGVEVDMHTRVDVEKVNGRWLITSIRFD | 1.18 |
| SELEEENRQALKESLREWETGDEKRLHENADPNARLQYGDKHYHGRENVSHMLTHIIEKFGIDHMRVRDFRVQGEKVETHVELRVGDKHLHIRIITMKVNGKWLFHSVHMHIE | 0.997 |
| DHDEREYHHFVQILIHSMRTGDWVKLEELMDPHVLIRIGDKELHGREELYRFMLQARIELEVKDYRLYGDKVELDTLLSMLIGDKLSETDSRMKLEKVDGKWIIREIFVDPETKKRLLD | 1.64 |
| SEEDEDAMRSAEFLVKKLNTGDEDWYQHLFDPHTKLEIGNFTSHGMHVSLKQWREMGADHVHVQDIDVFDGRVHVRTHIHVNGQTVEVLIILVKVNGRWIVERIRMK | 0.66 |
| DDLEESLKHLLELIIQWIRTGDFHMLSQYADPDVKIHYNGREYIGREFFLQLMREMGANHFSVERIDFQGDKLHVEISFRVGDKETHTRVESWKFNGVWLLKHIEMR | 0.463 |
